In publication PMC11321707:

Tests used:
[1] = 1H-15N HSQC NMR (signal loss and chemical shift perturbation upon self-assembly); R5 in phosphate-buffered solution, 11.8 mM Pi, pH 6.5, 25 °C; compared with R5 without Pi; settings: other: 1H-15N HSQC NMR (signal loss and chemical shift perturbation upon self-assembly)
[2] = diffusion-ordered NMR spectroscopy (DOSY); R5 in the presence of Pi, 25 °C; hydrodynamic radius by Stokes-Einstein, spherical model; monomer to trimer; settings: other: diffusion-ordered NMR spectroscopy (DOSY)
[3] = 1H-15N HSQC NMR (signal loss and chemical shift perturbation upon self-assembly); R5 in phosphate-buffered solution, 50 mM Pi, pH 6.5, 25 °C; compared with R5 without Pi; settings: other: 1H-15N HSQC NMR (signal loss and chemical shift perturbation upon self-assembly)

In the case of R5 peptide, the “percent of the peptides outside the large self-assemblies, with Pi” value [1] is reported as “≈0.7 and ≈0.01% of the peptides remained outside the large self‐assemblies”, the “N with Pi” value [2] is reported as “an aggregate volume that fits three R5 units” and the “percent of the peptides outside the large self-assemblies, with Pi” value [3] is reported as “≈0.7 and ≈0.01% of the peptides remained outside the large self‐assemblies”.
